Results reported in patent publication US20210155712A1 (HUMMINGBIRD BIOSCIENCE HOLDINGS PTE, published 2021).

Legend:
human HER2 [1] = molecular target: T1, human HER2 (human, UniProt P04626 23-652); test: ELISA, coated human HER2, antibody titrated, absorbance 450 nm
T1 construct: also called His-tagged HER2 protein

human EGFR [2] = molecular target: T2, human EGFR (human, UniProt P00533 25-645); test: ELISA, coated human EGFR (HER1), antibody titrated, absorbance 450 nm
T2 construct: also called human HER1 (EGFR); human EGFR-His

[3] = molecular target: T3, human HER3 expressed on cells (human, UniProt P21860 20-1342); test: flow cytometry on HEK293 cells overexpressing human HER3, 20 ug/ml antibody, FITC anti-Fc secondary
T3 construct: HEK293 cells transfected with a vector encoding human HER3; Also used here for HER3 on U2OS PathHunter cells and cancer cell lines; also called HEK293 HER3 O/E cells; HER3-expressing cells
Procedure: The cells were washed thrice with FACS buffer (PBS with 5 mM EDTA and 0.5% BSA) and resuspended in FITC-conjugated anti-FC antibody (Invitrogen, USA) for 40 min at 2-8° C. Cells were washed again and resuspended in 200 μL of FACS flow buffer (PBS with 5 mM EDTA) for flow cytometric analysis using MACSQuant 10 (Miltenyi Biotec, Germany). After acquisition, all raw data were analyzed using Flowlogic software. Cells were gated using forward and side scatter profile percentage of positive cells was determined for native and overexpressing cell populations.

human EGFR [4] = molecular target: T2, human EGFR; test: ELISA, plate coated with 0.1 ug/ml target polypeptide, antibody titrated, absorbance 450 nm
Procedure: (§1) ELISAs were used to determine the binding specificity of the antibodies. […] The antibodies were also analysed for their ability to bind to human EGFR and human HER2 (Sino Biological Inc., China).
(§2) ELISAs were carried out according to standard protocols. Briefly, 96-well plates (Nunc, Denmark) were coated with 0.1 μg/ml of target polypeptide in phosphate-buffered saline (PBS) for 16 h at 4° C. After blocking for 1 h with 1% BSA in Tris buffer saline (TBS) at room temperature, the anti-HER3 antibody was serially diluted with the highest concentration being 10 μg/ml, and added to the plate. Post 1 h incubation at room temperature, plates were washed three times with TBS containing 0.05% Tween 20 (TBS-T) and were then incubated with a HRP-conjugated […] antibody (Life Technologies, Inc., USA) for 1 h at room temperature. After washing, plates were developed with colorimetric detection substrate 3,3′,5,5′-tetramethylbenzidine (Turbo-TMB; Pierce, USA) for 10 min. The reaction was stopped with 2M H₂SO₄, and OD was measured at 450 nm.

human HER2 [5] = molecular target: T1, human HER2; test: as above
Procedure: as §1, §2

B1: 10D1F.FcA (antibody, human IgG1, kappa)
heavy: not shown
light: DIQMTQSPSSVSASVGDRVTITCKASQIVGSNVAWYQQKPGKAPEPLIYSASYLYSGVPSRFSGSGSGTDFTLTISSLQPEDFATYYCQQYSSHPLTFGQGTKLEIKRTVAAPSVFIFPPSDEQLKSGTASVVCLLNNFYPREAKVQWKVDNALQSGNSQESVTEQDSKDSTYSLSSTLTLSKADYEKHKVYACEVTHQGLSSPVTKSFNRGEC
notes: the full chains 206/207 are used here; also called 10D1F.A; anti-HER3 clone 10D1_c89 IgG1
B1: no binding (tested: last point at about log(M) -8.1) (human HER2 [1]); no binding (tested: last point at about log(M) -8.1) (human EGFR [2]).

B2: anti-HER3 clone 10D1_c90 IgG1 (antibody, V domains shown)
VH: QVQLQESGPGLVKPSQTLFLTCTVSGYSITSGYSWHWIRQHPGKGLEWIGSIRYSGGTDYNPSLKSLVTISVDTSKNQFSLKLSSVTAADTAVYYCARMTTAPWYPFDYWGQGTTVTVSS
VL: DIQMTQSPSSVSASVGDRVTFTCKASQIVGSNVAWYQQKPGKAPEPLIYSASYLYSSVPSRFSGSGSGTEFTMTISSLEPEDFATYYCQQYTTHPLTFGPGTKVEIKR
notes: IgG1/kappa
For B2, the “% Parent (HER3 Positive)” value [3] was 41.9%.

B3: anti-HER3 clone 10D1 IgG1 (antibody)
heavy: not shown
light: DIVMTQSQKFMSTSVGDRVSVTCKASQIVGSNVAWYQQKPGQSPKPLIYSASYRYSGVPDRFTASGSGTDFTLTITNVQSEDLAEYFCQQYSSHPLTFGAGTKLELKRTVAAPSVFIFPPSDEQLKSGTASVVCLLNNFYPREAKVQWKVDNALQSGNSQESVTEQDSKDSTYSLSSTLTLSKADYEKHKVYACEVTHQGLSSPVTKSFNRGEC
notes: also called 10D1P; 10D1 (parental)
B3: no binding (tested: about 2e-7 M (log -6.7)) (human EGFR [4]); no binding (tested: about 2e-7 M (log -6.7)) (human HER2 [5]).
